# Results reported in patent US20200199204A1 (UNITED STATES OF AMERICA AS REPRESENTED BY THE SECRETARY …, published 2020).
# B1: CAP256-VRC26.05 (antibody, V domains shown)
# VH: EVQLVESGGGVVQPGRSLRLSCAASHFSLSSYGMHWVRQAPGKGLEWVTGISFAGTKTYYGDSVRGRFTVSRDISKNTLFLQMNSLRPDDTAMYYCARDQRYYECEEWASDYYDFGREQPCLDPRGVVGIFDLWGQGTMVTVSS
# VL: QSALTQPPSVSAAPGQKVTISCSGNIGNNYVSWYQQVPGTAPKLLIYENNKRPSGIPDRFSGSKSGTSATLVITGLQTGDEADFYCGTWGGSLRTGGVLGTGTRVTVLG
# Biological target: HIV-1 Env of Q168.a2 (HIV-1)
# Assay: cell-based or functional assay
row,Binder,neutralization IC50
1,B1,> 50 µg/mL

# Biological target: HIV-1 Env of MB539.2B7 (HIV-1)
# Assay: cell-based or functional assay
row,Binder,neutralization IC50
1,B1,> 50 µg/mL

# Biological target: HIV-1 Env of UG037.8 (HIV-1)
# Assay: cell-based or functional assay
row,Binder,neutralization IC50
1,B1,> 50 µg/mL

# Biological target: HIV-1 Env of TH976.17 (HIV-1)
# Assay: cell-based or functional assay
row,Binder,neutralization IC50
1,B1,> 50 µg/mL

# Biological target: HIV-1 Env of CAAN.A2 (HIV-1)
# Assay: cell-based or functional assay
row,Binder,neutralization IC50
1,B1,> 50 µg/mL

# Biological target: HIV-1 Env of CAP210.E8 (HIV-1)
# Assay: cell-based or functional assay
row,Binder,neutralization IC50
1,B1,0.013 µg/mL

# Biological target: HIV-1 Env of ZM197.7 (HIV-1)
# Assay: cell-based or functional assay
row,Binder,neutralization IC50
1,B1,0.113 µg/mL

# Biological target: HIV-1 Env of 6405.v4.c34 (HIV-1)
# Assay: cell-based or functional assay
row,Binder,neutralization IC50
1,B1,> 50 µg/mL

# Biological target: HIV-1 Env of RW020.2 (HIV-1)
# Assay: cell-based or functional assay
row,Binder,neutralization IC50
1,B1,> 50 µg/mL

# Biological target: HIV-1 Env of C1080.c3 (HIV-1)
# Assay: cell-based or functional assay
row,Binder,neutralization IC50
1,B1,> 50 µg/mL

# Biological target: HIV-1 Env of KER2018.11 (HIV-1)
# Assay: cell-based or functional assay
row,Binder,neutralization IC50
1,B1,0.012 µg/mL

# Biological target: HIV-1 Env of REJO.67 (HIV-1)
# Assay: cell-based or functional assay
row,Binder,neutralization IC50
1,B1,> 50 µg/mL

# Biological target: HIV-1 Env of BG505.w6m (HIV-1)
# Assay: cell-based or functional assay
row,Binder,neutralization IC50
1,B1,> 50 µg/mL

# Biological target: HIV-1 Env of ZM109.4 (HIV-1)
# Assay: cell-based or functional assay
row,Binder,neutralization IC50
1,B1,26.5 µg/mL

# Biological target: HIV-1 Env of ZM135.10a (HIV-1)
# Assay: cell-based or functional assay
row,Binder,neutralization IC50
1,B1,> 50 µg/mL

# Biological target: HIV-1 Env of QH0692.42 (HIV-1)
# Assay: cell-based or functional assay
row,Binder,neutralization IC50
1,B1,> 50 µg/mL

# Biological target: HIV-1 Env of CAP244.D3 (HIV-1)
# Assay: cell-based or functional assay
row,Binder,neutralization IC50
1,B1,> 50 µg/mL

# Biological target: HIV-1 Env of CNE3 (HIV-1)
# Assay: cell-based or functional assay
row,Binder,neutralization IC50
1,B1,> 50 µg/mL

# Biological target: HIV-1 Env of Q461.e2 (HIV-1)
# Assay: cell-based or functional assay
row,Binder,neutralization IC50
1,B1,> 50 µg/mL

# Biological target: HIV-1 Env of RHPA.7 (HIV-1)
# Assay: cell-based or functional assay
row,Binder,neutralization IC50
1,B1,> 50 µg/mL

# Biological target: HIV-1 Env of 96ZM651.02 (HIV-1)
# Assay: cell-based or functional assay
row,Binder,neutralization IC50
1,B1,> 50 µg/mL

# Biological target: HIV-1 Env of 6535.3 (HIV-1)
# Assay: cell-based or functional assay
row,Binder,neutralization IC50
1,B1,> 50 µg/mL

# Biological target: HIV-1 Env of ZM249.1 (HIV-1)
# Assay: cell-based or functional assay
row,Binder,neutralization IC50
1,B1,> 50 µg/mL

# Biological target: HIV-1 Env of ZM214.15 (HIV-1)
# Assay: cell-based or functional assay
row,Binder,neutralization IC50
1,B1,> 50 µg/mL

# Biological target: HIV-1 Env of Q842.d12 (HIV-1)
# Assay: cell-based or functional assay
row,Binder,neutralization IC50
1,B1,> 50 µg/mL

# Biological target: HIV-1 Env of AC10.29 (HIV-1)
# Assay: cell-based or functional assay
row,Binder,neutralization IC50
1,B1,> 50 µg/mL

# Biological target: HIV-1 Env of ZM233.6 (HIV-1)
# Assay: cell-based or functional assay
row,Binder,neutralization IC50
1,B1,0.003 µg/mL

# Biological target: HIV-1 Env of PVO.04 (HIV-1)
# Assay: cell-based or functional assay
row,Binder,neutralization IC50
1,B1,44.4 µg/mL

# Biological target: HIV-1 Env of THRO.18 (HIV-1)
# Assay: cell-based or functional assay
row,Binder,neutralization IC50
1,B1,> 50 µg/mL

# Biological target: HIV-1 Env of CM244.ec1 (HIV-1)
# Assay: cell-based or functional assay
row,Binder,neutralization IC50
1,B1,0.517 µg/mL

# Biological target: HIV-1 Env of CAP256.PI (HIV-1)
# Assay: cell-based or functional assay
row,Binder,neutralization IC50
1,B1,> 50 µg/mL

# Biological target: HIV-1 Env of TRO.11 (HIV-1)
# Assay: cell-based or functional assay
row,Binder,neutralization IC50
1,B1,> 50 µg/mL

# Biological target: HIV-1 Env of KER2008.12 (HIV-1)
# Assay: cell-based or functional assay
row,Binder,neutralization IC50
1,B1,> 50 µg/mL

# Biological target: HIV-1 Env of MB201 (HIV-1)
# Assay: cell-based or functional assay
row,Binder,neutralization IC50
1,B1,> 50 µg/mL

# Biological target: HIV-1 Env of 191821.E6.1 (HIV-1)
# Assay: cell-based or functional assay
row,Binder,neutralization IC50
1,B1,> 50 µg/mL

# Biological target: HIV-1 Env of Q23.17 (HIV-1)
# Assay: cell-based or functional assay
row,Binder,neutralization IC50
1,B1,> 50 µg/mL

# Biological target: HIV-1 Env of 0260.v5.c36 (HIV-1)
# Assay: cell-based or functional assay
row,Binder,neutralization IC50
1,B1,> 50 µg/mL

# Biological target: HIV-1 Env of DU172.17 (HIV-1)
# Assay: cell-based or functional assay
row,Binder,neutralization IC50
1,B1,> 50 µg/mL

# Biological target: HIV-1 Env of SC422.8 (HIV-1)
# Assay: cell-based or functional assay
row,Binder,neutralization IC50
1,B1,> 50 µg/mL

# Biological target: HIV-1 Env of Q769.d22 (HIV-1)
# Assay: cell-based or functional assay
row,Binder,neutralization IC50
1,B1,> 50 µg/mL

# Biological target: HIV-1 Env of 3016.V5.c36 (HIV-1)
# Assay: cell-based or functional assay
row,Binder,neutralization IC50
1,B1,0.011 µg/mL

# Biological target: HIV-1 Env of DU156.12 (HIV-1)
# Assay: cell-based or functional assay
row,Binder,neutralization IC50
1,B1,> 50 µg/mL

# Biological target: HIV-1 Env of TRJO.58 (HIV-1)
# Assay: cell-based or functional assay
row,Binder,neutralization IC50
1,B1,> 50 µg/mL

# Biological target: HIV-1 Env of CAP256.SU (HIV-1)
# Assay: cell-based or functional assay
row,Binder,neutralization IC50
1,B1,0.007 µg/mL

# Biological target: HIV-1 Env of CAP45.G3 (HIV-1)
# Assay: cell-based or functional assay
row,Binder,neutralization IC50
1,B1,> 50 µg/mL

# Biological target: HIV-1 Env of Q259.d2.17 (HIV-1)
# Assay: cell-based or functional assay
row,Binder,neutralization IC50
1,B1,0.023 µg/mL

# Biological target: HIV-1 Env of ZM53.12 (HIV-1)
# Assay: cell-based or functional assay
row,Binder,neutralization IC50
1,B1,0.012 µg/mL

# Biological target: HIV-1 Env of DU422.01 (HIV-1)
# Assay: cell-based or functional assay
row,Binder,neutralization IC50
1,B1,> 50 µg/mL

# Biological target: HIV-1 Env of WITO.33 (HIV-1)
# Assay: cell-based or functional assay
row,Binder,neutralization IC50
1,B1,> 50 µg/mL
